Data taken from patent US8598081B2, “Specific delivery of agrochemicals” (priority 2010, dated 2013).

How the values were obtained:
[1] = system: gum arabic; test: VHH binding to gum arabic in ELISA; design: species or system acacia tree
Description: Titration of VHH antibody fragments was performed on ELISA plates (Maxisorp, Nunc) coated with 100 μl per well 100 μg/ml gum arabic in 50 mM carbonate pH 9.6. Plates were coated at 4° C. overnight and coating was continued at room temperature for 1 hour on the next day. Plates were washed three times with PBS/0.05%-TWEEN®-20 and blocked with 5% skimmed milk in PBS for 1 hour. Four-fold serial dilutions of purified VHH antibody fragments were prepared in 1% MPBS/0.05%-TWEEN®-20 in polypropylene 96-well plates. Antibody concentrations ranged from 3 μg/ml to 12 ng/ml. Antibody dilutions were transferred to the gum arabic-coated plates and VHH antibody fragments were allowed to bind for 1 hour at room temperature. Bound VHH were detected with sequential incubations with monoclonal mouse anti-histidine antibodies (Abd Serotec) and rabbit anti-mouse IgG whole molecule antibodies conjugated with alkaline phosphatase (RaM/AP) (Sigma) in 1% MPBS/0.05%-TWEEN®-20. Unbound antibodies were removed by washing three times with PBS/0.05%-TWEEN®-20 after each antibody incubation. The plates were washed an additional two times with PBS and 100 μl pNPP disodium hexahydrate substrate (Sigma) was added to each well. The absorbance at 405 nm was measured and plotted as function of antibody concentration (see Table 1).

[2] = system: leaf surface of potato leaves; test: VHH binding to non-fixed leaf discs, potato; design: species or system potato (variety Desiree); settings: 5 μg/ml, detection with anti-histidine Alexa-488
Description: (§1) VHH binding to non-fixed leaf discs of potato (variety Desiree), black nightshade, grass, wheat or azalea was investigated. For comparison, binding of CBM3a to non-fixed leaf discs of potato (variety Desiree) was analyzed in parallel. Leaf discs were prepared by punching a fresh potato leaf with a 5 mm belt hole puncher tool. Leaf discs were put immediately in wells of a 96-well plate containing 200 μl per well 5% MPBS or PBS, and incubated for 30 minutes. Leaf discs were transferred to solutions containing 5 μg/ml VHH antibody fragment, respectively, 5 μg/ml CBM3a in 2% MPBS or PBS and incubated for 60-90 minutes. Unbound VHH or CBM3a proteins were removed by washing three times with 2% MPBS or PBS. Bound VHH or CBM3a proteins were detected with incubation with monoclonal mouse anti-histidine antibodies directly conjugated with Alexa-488 fluorescent dye (Abd Serotec) in 1% MPBS for 1 hour. Unbound antibodies were removed by washing three times with PBS. Leaf discs were put on glass slides, covered with cover slips, and analyzed by microscopy or on a macrozoom microscope system (Nikon) or a SP5 confocal microscope system (Leica).

[3] = target: T1, potato lectin (Solanum tuberosum, UniProt Q9S8M0); test: VHH binding to potato lectin in ELISA; settings: Table 2; Blank (no antigen coating); VHH 3 μg/ml
T1 construct: purchased Sigma
T1 sequence (Q9S8M0 whole entry, looked up): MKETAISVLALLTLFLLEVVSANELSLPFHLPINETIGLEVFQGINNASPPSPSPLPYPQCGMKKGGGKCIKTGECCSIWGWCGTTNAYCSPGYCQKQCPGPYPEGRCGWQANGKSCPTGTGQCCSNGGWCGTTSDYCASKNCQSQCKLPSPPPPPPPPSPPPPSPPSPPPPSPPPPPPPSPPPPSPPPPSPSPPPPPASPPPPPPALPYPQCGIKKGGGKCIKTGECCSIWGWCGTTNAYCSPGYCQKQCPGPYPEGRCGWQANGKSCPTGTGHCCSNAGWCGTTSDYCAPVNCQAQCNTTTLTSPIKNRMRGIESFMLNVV
Description: ELISA plates (Maxisorp, Nunc) coated with 100 μl per well 100 μg/ml potato lectin (Sigma) in PBS were coated at 4° C. overnight and coating was continued at room temperature for 1 hour on the next day. Plates were washed three times with PBS/0.05%-TWEEN®-20 and blocked with 5% skimmed milk in PBS for 1 hour. VHH (3 μg/ml) were transferred to the potato lectin-coated plates and VHH antibody fragments were allowed to bind for 1 hour at room temperature. Bound VHH were detected with sequential incubations with monoclonal mouse anti-histidine antibodies (Abd Serotec) and rabbit anti-mouse IgG whole molecule antibodies conjugated with alkaline phosphatase (RaM/AP) (Sigma) in 1% MPBS/0.05%-TWEEN®-20. Unbound antibodies were removed by washing three times with PBS/0.05%-TWEEN®-20 after each antibody incubation. The plates were washed an additional two times with PBS and 100 μl pNPP disodium hexahydrate substrate (Sigma) was added to each well and the absorbance at 405 nm was measured (see Table 2).

[4] = system: potato leaf discs; test: VHH binding at different temperatures, leaf dip experiment; design: species or system potato (variety Desiree); settings: temperature range from 4° C. to 55° C.; 5 μg/ml in PBS; 1 hour
Description: In order to test applicability of VHH as binders for greenhouse or field applications where binding supposedly may occur at different and sometimes even extreme temperatures, a leaf dip VHH binding experiment at different temperatures was used. Temperatures used were 4° C., room temperature, 37° C., 55° C., or 70° C. ø 8 mm potato leaf discs (variety Desiree) were cut using a puncher tool. The leaf discs were equilibrated to different temperatures by washing three times with PBS at different temperatures. Hexahistidine-tagged VHH were diluted to 5 μg/ml in PBS at different temperatures, added to the corresponding equilibrated leaf discs, and binding of VHH was allowed for 1 hour at different temperatures. After incubation with VHH, leaf discs were washed five times with PBS at room temperature. Bound VHH were detected by incubation with monoclonal mouse anti-histidine antibodies directly conjugated with Alexa-488 fluorescent dye (Abd Serotec) in PBS for 1 hour at room temperature. Unbound anti-histidine antibodies were removed by washing five times with PBS at room temperature. Leaf discs were analyzed for bound VHH with microscopy. […] Please note that leaf discs severely suffer when submerged in PBS at 70° C. for 1 hour but that binding of VHH was still detected.

[5] = system: surface of grass leaves; test: VHH binding to non-fixed leaf discs, grass; settings: 5 μg/ml, detection with anti-histidine Alexa-488
Description: as §1

[6] = system: surface of black nightshade leaves; test: VHH binding to non-fixed leaf discs, black nightshade; settings: 5 μg/ml, detection with anti-histidine Alexa-488
Description: as §1

B1: VHH 3E6: VHH binding gum arabic, potato lectin and leaf surface; SEQ ID NO:7 by order of the list (protein, listed as Lama glama)
VHH: QVQLQESGGGLVQPGGTLSLSCAASGFNVRWYGMGWFRQAPGKEREGVACISALQETTAYADSVKGRFTLSRDNPKNTLSLQMNNLQPEDTGVYYCATTDCDDSSRMTYTSYLGQGTQVTVSS
modifications: 3E6
absorbance at 405 nm ([1]; Table 2, gum arabic coating, VHH 3 μg/ml): 0.882
absorbance at 405 nm ([1]; [VHH] 3 μg/ml (200 nM), gum arabic − (well without gum arabic)): 0.090
binding to native potato leaf surface (fluorescence microscopy) [2]: binding leaf surface, stomata, glandular trichomes, and leaf hairs
binding to native potato leaf surface (fluorescence microscopy) ([2]; listed as 3E6): clearly binding to trichomes, stomata and cuticle
absorbance at 405 nm [3]: 0.067
binding to leaf discs at different temperatures [4]: detectable binding
binding to native grass leaf surface (fluorescence microscopy) [5]: binding to leaf surface and wounded plant tissue
binding to native grass leaf surface (fluorescence microscopy) ([5]; listed as 3E6): bind specifically
binding to native black nightshade leaf surface (fluorescence microscopy) [6]: binding leaf surface, glandular trichomes, and leaf hairs
binding to native black nightshade leaf surface (fluorescence microscopy) ([6]; listed as 3E6): bind specifically
